Consider 28 molecules from paper PMC314469, “Protein Interaction Networks by Proteome Peptide Scanning” (PLoS Biology, 2004).

The chains are these.
T1: amphyphisin SH3 (AMPH_HUMAN), P49418
T1 chain: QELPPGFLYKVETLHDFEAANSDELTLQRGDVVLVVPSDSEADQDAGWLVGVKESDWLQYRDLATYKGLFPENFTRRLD

The first experiment has as its target T1, amphyphisin SH3 (AMPH_HUMAN), P49418. As to the kind of experiment: SPOT array.
Turning to TPDLLPRPPRLLLL [Q9NRA0 137-150], the normalised SPOT signal, Boehringer light units (BLU); mean over the file's lines of this peptide came out at 830.
For the molecule TPLSLKRPPPYDAV [Q9P242 471-484], the normalised SPOT signal, Boehringer light units (BLU); mean over the file's lines of this peptide is 19.2.
Regarding TPTVPLKPPPPLTL [Q9HD71 354-368], the normalised SPOT signal, Boehringer light units (BLU); mean over the file's lines of this peptide was determined as 39.3.
In the case of TPLSPLKPPRMDTA [Q9H898 117-131], the normalised SPOT signal, Boehringer light units (BLU); mean over the file's lines of this peptide was 334.
The same measure, in the same setting: under TPNPLERPIKMGWL [P42331 33-46] stands 94; under SEMLIKRPSKVKTI [Q8WV92 138-151], 62.6.
Same read-out and setting: under TPAPPLRPPDSLSR [Q8WX45 160-174] stands 446.
On the same count and under the same terms, under TMSSIYRPLKPRTN [Q9H296 344-357] stands 97.2; under TPRKILRPTKETSE [Q9BXX2 182-195], 173.
Molecule TPPDPPRPKRRSHS [Q9ULT1 709-722] showed a normalised SPOT signal, Boehringer light units (BLU); mean over the file's lines of this peptide of 2330.
On the same count and under the same terms, under TPSELERPSRMVSR [Q14068 72-85] stands 772; under TPPLPRRPRKGSSE [Q9H0X6 10-23], 2900; under TPPQPKRPRPGVSK [Q9BR39 363-376], 343.
On the same count and under the same terms, the value for TPVSLGRPERYRRH [Q9GZM7 384-397] was 644; that for TNAGIRRPEKPPYS [Q12946 14-27] was 70.3; that for TPPAFIRPTRKLDD [Q9UPV7 127-140] was 173.
The molecule TPRGPRRPSGPAEL [Q9BUY9 649-662] yielded a normalised SPOT signal, Boehringer light units (BLU); mean over the file's lines of this peptide of 31.6.
TPKPPKRPRLQRPA [Q9NWH1 363-376] yielded a normalised SPOT signal, Boehringer light units (BLU); mean over the file's lines of this peptide of 381.
Same read-out and setting: under TPPIPSKPPGGFGK [Q9H462 843-857] stands 41.7; under TNPELRRPRSEPSN [Q9Y6Y1 1215-1228], 34.7; under TNFAFRRPSFESLK [P43652 501-514], 45.2.
In the case of SELRLSRPPKAYGS [Q9H4S4 61-74], the normalised SPOT signal, Boehringer light units (BLU); mean over the file's lines of this peptide worked out at 36.1.
TNFPPPRPPPPSRP [AAH28697 239-253] registered a normalised SPOT signal, Boehringer light units (BLU); mean over the file's lines of this peptide of 1610.
Still for that read-out and setting: under TPGEFRRPRLASFG [Q14678 130-143] stands 44.3; under TNSRLARPTRLSLG [P35568 851-864], 1760.
The same measure, in the same setting: the value for TPASPRRPPALRSQ [Q9BUY9 390-404] was 843; that for TPAPPLRPPDSPSR [O75949 160-174] was 280; that for TPRPLARPARPNLS [Q9Y6C2 143-156] was 3020.

In the next experiment the target is endophilin SH3 (SH3G2_HUMAN), Q99962. As to the kind of experiment: SPOT array.
With TPDLLPRPPRLLLL [Q9NRA0 137-150], the normalised SPOT signal, Boehringer light units (BLU); mean over the file's lines of this peptide is 94.4.
Same read-out and setting: under TPLSLKRPPPYDAV [Q9P242 471-484] stands 67.5; under TPTVPLKPPPPLTL [Q9HD71 354-368], 904; under TPLSPLKPPRMDTA [Q9H898 117-131], 56.4.
For the molecule TPNPLERPIKMGWL [P42331 33-46], the normalised SPOT signal, Boehringer light units (BLU); mean over the file's lines of this peptide was 59.1.
As to SEMLIKRPSKVKTI [Q8WV92 138-151], the normalised SPOT signal, Boehringer light units (BLU); mean over the file's lines of this peptide was determined as 48.1.
In turn, TPAPPLRPPDSLSR [Q8WX45 160-174] had a normalised SPOT signal, Boehringer light units (BLU); mean over the file's lines of this peptide of 647.
Same read-out and setting: the value for TMSSIYRPLKPRTN [Q9H296 344-357] was 120; that for TPRKILRPTKETSE [Q9BXX2 182-195] was 30.9.
TPPDPPRPKRRSHS [Q9ULT1 709-722]: the normalised SPOT signal, Boehringer light units (BLU); mean over the file's lines of this peptide amounted to 202.
With TPSELERPSRMVSR [Q14068 72-85], the normalised SPOT signal, Boehringer light units (BLU); mean over the file's lines of this peptide was found to be 29.
For the molecule TPPLPRRPRKGSSE [Q9H0X6 10-23], the normalised SPOT signal, Boehringer light units (BLU); mean over the file's lines of this peptide was 2360.
The same measure, in the same setting: the value for TPPQPKRPRPGVSK [Q9BR39 363-376] was 253.
Still for that read-out and setting: under TPVSLGRPERYRRH [Q9GZM7 384-397] stands 398; under TNAGIRRPEKPPYS [Q12946 14-27], 113; under TPPAFIRPTRKLDD [Q9UPV7 127-140], 146.
In the case of TPRGPRRPSGPAEL [Q9BUY9 649-662], the normalised SPOT signal, Boehringer light units (BLU); mean over the file's lines of this peptide came to 30.
TPKPPKRPRLQRPA [Q9NWH1 363-376] gave a normalised SPOT signal, Boehringer light units (BLU); mean over the file's lines of this peptide of 8220.
TPPIPSKPPGGFGK [Q9H462 843-857] gave a normalised SPOT signal, Boehringer light units (BLU); mean over the file's lines of this peptide of 995.
TNPELRRPRSEPSN [Q9Y6Y1 1215-1228] returned a normalised SPOT signal, Boehringer light units (BLU); mean over the file's lines of this peptide of 41.2.
Still for that read-out and setting: the value for TNFAFRRPSFESLK [P43652 501-514] was 414.
The same measure, in the same setting: the value for SELRLSRPPKAYGS [Q9H4S4 61-74] was 13.3; that for TNFPPPRPPPPSRP [AAH28697 239-253] was 11200; that for TPGEFRRPRLASFG [Q14678 130-143] was 720.
TNSRLARPTRLSLG [P35568 851-864] displayed a normalised SPOT signal, Boehringer light units (BLU); mean over the file's lines of this peptide of 1890.
Molecule TPASPRRPPALRSQ [Q9BUY9 390-404] registered a normalised SPOT signal, Boehringer light units (BLU); mean over the file's lines of this peptide of 6640.
TPAPPLRPPDSPSR [O75949 160-174]: the normalised SPOT signal, Boehringer light units (BLU); mean over the file's lines of this peptide was 2060.
For the molecule TPRPLARPARPNLS [Q9Y6C2 143-156], the normalised SPOT signal, Boehringer light units (BLU); mean over the file's lines of this peptide is 610.
